Values of other authors as cited in publication PMC11591972.

Target: Vm24 (Vaejovis mexicanus smithi) (UniProt P0DJ31)
Sequence of UniProt P0DJ31 (P0DJ31 whole entry): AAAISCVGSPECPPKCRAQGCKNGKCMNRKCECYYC

For Kv1.3 (from UniProt P22001), the Kd is given as 3 pM.
